# Laboratory results published in the supplement of paper PMC10065799, “High-throughput profiling of sequence recognition by tyrosine kinases and SH2 domains using bacterial peptide display” (eLife, 2023).
# Target: Fyn (UniProt P06241)
# Assay: phosphorylation enrichment, bacterial display (enrichment ratio); higher = better substrate or ligand; peptides without Tyr show the background
# 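Further: 11-residue human phosphosite peptides and single-mutation variants displayed on the E. coli surface, counted by deep sequencing, each peptide's frequency after selection divided by its frequency in the unselected input library; frequency after pTyr selection over input frequency; kinase dosed for 20-30% of maximal phosphorylation in three min.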
# Chain of Fyn (P06241 whole entry, looked up): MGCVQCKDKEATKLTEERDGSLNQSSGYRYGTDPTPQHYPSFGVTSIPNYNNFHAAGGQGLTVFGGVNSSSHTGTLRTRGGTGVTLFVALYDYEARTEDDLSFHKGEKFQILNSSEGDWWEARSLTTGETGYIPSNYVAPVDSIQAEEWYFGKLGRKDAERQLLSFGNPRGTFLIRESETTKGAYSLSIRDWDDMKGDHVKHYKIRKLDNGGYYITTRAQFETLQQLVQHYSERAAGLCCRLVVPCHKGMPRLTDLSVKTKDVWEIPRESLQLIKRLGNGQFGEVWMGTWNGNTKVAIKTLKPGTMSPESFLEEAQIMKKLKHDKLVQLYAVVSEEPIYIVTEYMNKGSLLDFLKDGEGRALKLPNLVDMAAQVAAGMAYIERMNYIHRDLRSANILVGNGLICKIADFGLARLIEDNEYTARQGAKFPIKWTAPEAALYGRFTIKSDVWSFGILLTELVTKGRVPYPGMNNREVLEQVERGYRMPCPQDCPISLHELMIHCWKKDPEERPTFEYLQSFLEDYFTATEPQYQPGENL
row,Sequence,phosphorylation enrichment
1,AHAGEYGAEAL [HBA1_Y25],0.387
2,ENELTYFCFKK [CD59_Y86_C89Y_YF],4.33
3,QNTGYYYDLYG [PTPN11_Y62_D61Y],7.01
4,SGPRRYTIAAL [TTR_Y125],0.482
5,CSEEMYCLMLQ [RET_Y981_R982C],1.08
6,MSLDQYSPSFP [FGFR1_Y776_P772S],0.551
7,QQTYTYDSGIH [JUP_Y22],1.65
8,KNKKDYFDMFE [SLC26A3_Y526_YF],0.453
9,KNEVLYDGENH [ARFGEF1_Y314],0.422
10,WVYNHYRWFIW [BRCA2_Y2624_I2627F],0.441
11,EQWRAYLEGTC [HLA-C_Y183_L180W],0.527
12,DSRRDYVSQFE [APOA1_Y53_G50R],0.409
13,YIILIYAMKKK [SLCO1B1_Y645],0.514
14,VDSTEYEVASQ [SLC7A7_Y7],0.499
15,NVPILYTASQA [CTNNA1_Y222],0.421
16,LARDMHDKEYY [MET_Y1230_Y1230H],0.445
17,CTTIHYNFMCI [TP53_Y234_N239I_YF],0.477

row,Sequence,phosphorylation enrichment
1,FVHDNYVIQRT [CPS1_Y1450_R1453Q],0.425
2,EFTPLYPMLFG [SCLY_Y280],0.547
3,SKQGKYLNWDA [ATM_Y54],0.396
4,GKFHMYVAVWT [F13A1_Y161_R159H],0.407
5,NKKHHYRELPV [ERN2_Y860],0.669
6,VGGRIYTDDGL [PKLR_Y218_I219T],0.427
7,GGKFSYLKVGH [GRM3_Y480_YF],0.361
8,RIVEIYTRRLQ [GCH1_Y175_S176T],0.543
9,FKEDPYLVVNP [MCM6_Y810_E806K_YF],1.06
10,SPDMLYQYLKQ [RPAP3_Y567],1.18
11,LTSKPYAFTAR [NDUFS1_Y236],0.722
12,KPGLKYVTYGN [GALNTL5_Y404],0.39
13,GESKDYALHVG [SVIL_Y185],0.463
14,NPQKPYFIRLF [WAS_Y83_S82P_YF],0.438
15,GFILMYDITNE [RAB3C_Y110],0.526
16,KKCTTYIDCDL [ASPA_Y64_R63T],0.42

# System: c-Abl (mouse)
# Assay: as above
row,Sequence,phosphorylation enrichment
1,AHAGEYGAEAL [HBA1_Y25],0.629
2,ENELTYFCFKK [CD59_Y86_C89Y_YF],3.38
3,QNTGYYYDLYG [PTPN11_Y62_D61Y],1.25
4,SGPRRYTIAAL [TTR_Y125],0.637
5,CSEEMYCLMLQ [RET_Y981_R982C],1.25
6,MSLDQYSPSFP [FGFR1_Y776_P772S],0.598
7,QQTYTYDSGIH [JUP_Y22],0.841
8,KNKKDYFDMFE [SLC26A3_Y526_YF],0.882
9,KNEVLYDGENH [ARFGEF1_Y314],0.668
10,WVYNHYRWFIW [BRCA2_Y2624_I2627F],0.777
11,EQWRAYLEGTC [HLA-C_Y183_L180W],0.845
12,DSRRDYVSQFE [APOA1_Y53_G50R],0.567
13,YIILIYAMKKK [SLCO1B1_Y645],0.426
14,VDSTEYEVASQ [SLC7A7_Y7],0.825
15,NVPILYTASQA [CTNNA1_Y222],0.576
16,LARDMHDKEYY [MET_Y1230_Y1230H],0.395
17,CTTIHYNFMCI [TP53_Y234_N239I_YF],0.809

row,Sequence,phosphorylation enrichment
1,FVHDNYVIQRT [CPS1_Y1450_R1453Q],0.52
2,EFTPLYPMLFG [SCLY_Y280],0.849
3,SKQGKYLNWDA [ATM_Y54],0.491
4,GKFHMYVAVWT [F13A1_Y161_R159H],1.45
5,NKKHHYRELPV [ERN2_Y860],2.31
6,VGGRIYTDDGL [PKLR_Y218_I219T],0.629
7,GGKFSYLKVGH [GRM3_Y480_YF],0.494
8,RIVEIYTRRLQ [GCH1_Y175_S176T],0.517
9,FKEDPYLVVNP [MCM6_Y810_E806K_YF],0.815
10,SPDMLYQYLKQ [RPAP3_Y567],0.856
11,LTSKPYAFTAR [NDUFS1_Y236],0.453
12,KPGLKYVTYGN [GALNTL5_Y404],0.389
13,GESKDYALHVG [SVIL_Y185],0.502
14,NPQKPYFIRLF [WAS_Y83_S82P_YF],0.423
15,GFILMYDITNE [RAB3C_Y110],0.8
16,KKCTTYIDCDL [ASPA_Y64_R63T],0.601

# System: AncSZ
# Assay: as above
row,Sequence,phosphorylation enrichment
1,AHAGEYGAEAL [HBA1_Y25],0.675
2,ENELTYFCFKK [CD59_Y86_C89Y_YF],1.71
3,QNTGYYYDLYG [PTPN11_Y62_D61Y],1.9
4,SGPRRYTIAAL [TTR_Y125],0.605
5,CSEEMYCLMLQ [RET_Y981_R982C],3.36
6,MSLDQYSPSFP [FGFR1_Y776_P772S],0.68
7,QQTYTYDSGIH [JUP_Y22],1.45
8,KNKKDYFDMFE [SLC26A3_Y526_YF],0.864
9,KNEVLYDGENH [ARFGEF1_Y314],0.943
10,WVYNHYRWFIW [BRCA2_Y2624_I2627F],1.12
11,EQWRAYLEGTC [HLA-C_Y183_L180W],1.2
12,DSRRDYVSQFE [APOA1_Y53_G50R],0.762
13,YIILIYAMKKK [SLCO1B1_Y645],0.588
14,VDSTEYEVASQ [SLC7A7_Y7],1.25
15,NVPILYTASQA [CTNNA1_Y222],0.553
16,LARDMHDKEYY [MET_Y1230_Y1230H],0.763
17,CTTIHYNFMCI [TP53_Y234_N239I_YF],1.05

row,Sequence,phosphorylation enrichment
1,FVHDNYVIQRT [CPS1_Y1450_R1453Q],0.788
2,EFTPLYPMLFG [SCLY_Y280],1.01
3,SKQGKYLNWDA [ATM_Y54],0.79
4,GKFHMYVAVWT [F13A1_Y161_R159H],1.18
5,NKKHHYRELPV [ERN2_Y860],1.04
6,VGGRIYTDDGL [PKLR_Y218_I219T],0.768
7,GGKFSYLKVGH [GRM3_Y480_YF],0.634
8,RIVEIYTRRLQ [GCH1_Y175_S176T],0.936
9,FKEDPYLVVNP [MCM6_Y810_E806K_YF],1.19
10,SPDMLYQYLKQ [RPAP3_Y567],1.09
11,LTSKPYAFTAR [NDUFS1_Y236],0.663
12,KPGLKYVTYGN [GALNTL5_Y404],0.505
13,GESKDYALHVG [SVIL_Y185],0.606
14,NPQKPYFIRLF [WAS_Y83_S82P_YF],1.17
15,GFILMYDITNE [RAB3C_Y110],1.33
16,KKCTTYIDCDL [ASPA_Y64_R63T],0.975

# Target: Fes (UniProt P07332)
# Assay: as above
# Chain of Fes (P07332 whole entry, looked up): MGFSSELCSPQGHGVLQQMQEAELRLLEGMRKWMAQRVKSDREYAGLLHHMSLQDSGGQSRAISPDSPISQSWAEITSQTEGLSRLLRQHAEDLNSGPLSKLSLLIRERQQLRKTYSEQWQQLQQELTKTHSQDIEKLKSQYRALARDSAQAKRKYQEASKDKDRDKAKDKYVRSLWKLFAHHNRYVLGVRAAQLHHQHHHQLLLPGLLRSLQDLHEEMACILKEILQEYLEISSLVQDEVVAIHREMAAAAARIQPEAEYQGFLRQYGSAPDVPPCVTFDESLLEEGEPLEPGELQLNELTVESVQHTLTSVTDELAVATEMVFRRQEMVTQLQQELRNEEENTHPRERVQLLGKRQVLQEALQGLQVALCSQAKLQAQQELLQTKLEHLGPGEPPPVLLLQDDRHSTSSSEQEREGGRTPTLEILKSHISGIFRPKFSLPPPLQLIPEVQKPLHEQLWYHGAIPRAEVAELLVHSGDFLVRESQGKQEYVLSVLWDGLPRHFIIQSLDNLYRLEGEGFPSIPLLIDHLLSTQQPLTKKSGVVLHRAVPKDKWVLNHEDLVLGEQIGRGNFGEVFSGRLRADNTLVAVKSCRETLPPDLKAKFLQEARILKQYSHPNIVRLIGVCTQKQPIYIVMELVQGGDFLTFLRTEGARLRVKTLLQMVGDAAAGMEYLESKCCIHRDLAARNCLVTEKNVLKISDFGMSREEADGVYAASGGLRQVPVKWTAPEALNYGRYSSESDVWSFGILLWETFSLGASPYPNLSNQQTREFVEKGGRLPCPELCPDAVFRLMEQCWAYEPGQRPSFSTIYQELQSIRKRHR
row,Sequence,phosphorylation enrichment
1,AHAGEYGAEAL [HBA1_Y25],0.816
2,ENELTYFCFKK [CD59_Y86_C89Y_YF],1.57
3,QNTGYYYDLYG [PTPN11_Y62_D61Y],1.96
4,SGPRRYTIAAL [TTR_Y125],0.579
5,CSEEMYCLMLQ [RET_Y981_R982C],1.3
6,MSLDQYSPSFP [FGFR1_Y776_P772S],0.782
7,QQTYTYDSGIH [JUP_Y22],1.35
8,KNKKDYFDMFE [SLC26A3_Y526_YF],0.909
9,KNEVLYDGENH [ARFGEF1_Y314],0.836
10,WVYNHYRWFIW [BRCA2_Y2624_I2627F],1.24
11,EQWRAYLEGTC [HLA-C_Y183_L180W],1.23
12,DSRRDYVSQFE [APOA1_Y53_G50R],0.709
13,YIILIYAMKKK [SLCO1B1_Y645],0.511
14,VDSTEYEVASQ [SLC7A7_Y7],1.16
15,NVPILYTASQA [CTNNA1_Y222],0.597
16,LARDMHDKEYY [MET_Y1230_Y1230H],0.678
17,CTTIHYNFMCI [TP53_Y234_N239I_YF],1.26

row,Sequence,phosphorylation enrichment
1,FVHDNYVIQRT [CPS1_Y1450_R1453Q],0.672
2,EFTPLYPMLFG [SCLY_Y280],1.12
3,SKQGKYLNWDA [ATM_Y54],0.856
4,GKFHMYVAVWT [F13A1_Y161_R159H],1.1
5,NKKHHYRELPV [ERN2_Y860],1.97
6,VGGRIYTDDGL [PKLR_Y218_I219T],0.921
7,GGKFSYLKVGH [GRM3_Y480_YF],0.619
8,RIVEIYTRRLQ [GCH1_Y175_S176T],0.949
9,FKEDPYLVVNP [MCM6_Y810_E806K_YF],1.12
10,SPDMLYQYLKQ [RPAP3_Y567],0.692
11,LTSKPYAFTAR [NDUFS1_Y236],1.1
12,KPGLKYVTYGN [GALNTL5_Y404],0.547
13,GESKDYALHVG [SVIL_Y185],0.798
14,NPQKPYFIRLF [WAS_Y83_S82P_YF],1
15,GFILMYDITNE [RAB3C_Y110],1.66
16,KKCTTYIDCDL [ASPA_Y64_R63T],1.14
